Source: patent US20190175744A1 (Merck Sharp & Dohme, published 2019)
Starred links: 1 amine or outer side, 2 acyl side, 3 side chain; linkers in the order of their positions; H or OH if unused. Non-standard residues stand in square brackets, D forms with d. Groups on a side chain read outwards from the residue. No end group written: not given here. *: point of attachment. C16N3 = 16-azido-hexadecanoic acid, [N-]=[N+]=NCCCCCCCCCCCCCCCC(=O)*; C5N3 = 5-azido pentinoic acid, [N-]=[N+]=NCCCCC(=O)*; C18 diacid = O=C(O)CCCCCCCCCCCCCCCCC(=O)*; Lys(N3) = [N-]=[N+]=NCCCC[C@H](N)C(=O)O; γGlu = O=C(O)[C@H](CCC(=O)[*:2])N[*:1]; Met(O2) = CS(=O)(=O)CC[C@H](N)C(=O)O; Palmitoyl = CCCCCCCCCCCCCCCC(=O)*; AEEA = NCCOCCOCC(=O)O; Aib = CC(C)(N)C(=O)O

Columns and labels:
[1] = biological target: human glucagon receptor (human, UniProt P47871 26-477); assay: cell-based or functional assay
[2] = biological target: human GLP-1 receptor (human, UniProt P43220 24-463); assay: cell-based or functional assay

H[Aib]QGTFTSDK([γGlu-γGlu-Palmitoyl])SKYLD[Aib]RAAQDFVQWLLDTKK([AEEA-C5N3])-NH2 [PEP20]
hGCGR_EC50 (cAMP activity assay) [1]: 0.1 nM
hGLP1R EC50 (cAMP activity assay) [2]: 0.05 nM

B1: PEP27 (peptide)
peptide: H[dS]QGTFTSDYSKYLDERAAQK([AEEA-AEEA-γGlu-C16N3])FVQWLLDT-NH2
modifications: N-terminus assumed
SMILES: CC(C)C[C@H](NC(=O)[C@H](Cc1ccc(O)cc1)NC(=O)[C@H](CCCCN)NC(=O)[C@H](CO)NC(=O)[C@H](Cc1ccc(O)cc1)NC(=O)[C@H](CC(=O)O)NC(=O)[C@H](CO)NC(=O)[C@@H](NC(=O)[C@H](Cc1ccccc1)NC(=O)[C@@H](NC(=O)CNC(=O)[C@H](CCC(N)=O)NC(=O)[C@@H](CO)NC(=O)[C@@H](N)Cc1c[nH]cn1)[C@@H](C)O)[C@@H](C)O)C(=O)N[C@@H](CC(=O)O)C(=O)N[C@@H](CCC(=O)O)C(=O)N[C@@H](CCCNC(=N)N)C(=O)N[C@@H](C)C(=O)N[C@@H](C)C(=O)N[C@@H](CCC(N)=O)C(=O)N[C@@H](CCCCNC(=O)COCCOCCNC(=O)COCCOCCNC(=O)CC[C@H](NC(=O)CCCCCCCCCCCCCCCN=[N+]=[N-])C(=O)O)C(=O)N[C@@H](Cc1ccccc1)C(=O)N[C@H](C(=O)N[C@@H](CCC(N)=O)C(=O)N[C@@H](Cc1c[nH]c2ccccc12)C(=O)N[C@@H](CC(C)C)C(=O)N[C@@H](CC(C)C)C(=O)N[C@@H](CC(=O)O)C(=O)N[C@H](C(N)=O)[C@@H](C)O)C(C)C
hGCGR_EC50 (cAMP activity assay) [1]: 0.39 nM
hGLP1R EC50 (cAMP activity assay) [2]: 0.06 nM

H[dS]QGTFTSDYSKYLDERAAK([AEEA-AEEA-γGlu-C16N3])DFVQWLLDT-NH2 [PEP26]
hGCGR_EC50 (cAMP activity assay) [1]: 0.12 nM
hGLP1R EC50 (cAMP activity assay) [2]: 0.12 nM

B2: PEP13 (peptide)
peptide: H[dS]QGTFTSDK([γGlu-γGlu-Palmitoyl])SKYLDSRRAHDFV[Lys(N3)]WLLNT-NH2
modifications: N-terminus assumed
SMILES: CCCCCCCCCCCCCCCC(=O)N[C@@H](CCC(=O)N[C@@H](CCC(=O)NCCCC[C@H](NC(=O)[C@H](CC(=O)O)NC(=O)[C@H](CO)NC(=O)[C@@H](NC(=O)[C@H](Cc1ccccc1)NC(=O)[C@@H](NC(=O)CNC(=O)[C@H](CCC(N)=O)NC(=O)[C@@H](CO)NC(=O)[C@@H](N)Cc1c[nH]cn1)[C@@H](C)O)[C@@H](C)O)C(=O)N[C@@H](CO)C(=O)N[C@@H](CCCCN)C(=O)N[C@@H](Cc1ccc(O)cc1)C(=O)N[C@@H](CC(C)C)C(=O)N[C@@H](CC(=O)O)C(=O)N[C@@H](CO)C(=O)N[C@@H](CCCNC(=N)N)C(=O)N[C@@H](CCCNC(=N)N)C(=O)N[C@@H](C)C(=O)N[C@@H](Cc1c[nH]cn1)C(=O)N[C@@H](CC(=O)O)C(=O)N[C@@H](Cc1ccccc1)C(=O)N[C@H](C(=O)N[C@@H](CCCCN=[N+]=[N-])C(=O)N[C@@H](Cc1c[nH]c2ccccc12)C(=O)N[C@@H](CC(C)C)C(=O)N[C@@H](CC(C)C)C(=O)N[C@@H](CC(N)=O)C(=O)N[C@H](C(N)=O)[C@@H](C)O)C(C)C)C(=O)O)C(=O)O
hGCGR_EC50 (cAMP activity assay) [1]: 0.04 nM
hGLP1R EC50 (cAMP activity assay) [2]: 0.1 nM

H[dS]QGTFTSDK([γGlu-γGlu-Palmitoyl])SKYLDERAAQ[Lys(N3)]FVQWLLDT-NH2 [PEP1]
hGCGR_EC50 (cAMP activity assay) [1]: 0.01 nM

HXQGTFTSDYSKYLDERAAQDFVKWLLDT (D-Ser (s) at 2; Lys 24 K(PEG2PEG2γE-C16N3); C-terminal amide) [PEP25]
hGCGR_EC50 (cAMP activity assay) [1]: 0.04 nM
hGLP1R EC50 (cAMP activity assay) [2]: 0.05 nM

H[Aib]QGTFTSDK([γGlu-γGlu-Palmitoyl])SKYLDERAAQDFV[Lys(N3)]WLLDGRG-NH2 [PEP2]
hGCGR_EC50 (cAMP activity assay) [1]: 0.11 nM

H[Aib]QGTFTSDYSKYLDARAAK([AEEA-AEEA-γGlu-C18 diacid])DFV[Lys(N3)]WL[Met(O2)]DT-NH2 [PEP30]
hGCGR_EC50 (cAMP activity assay) [1]: 2.27 nM
hGLP1R EC50 (cAMP activity assay) [2]: 0.5 nM

H[dS]QGTFTSDK([γGlu-γGlu-Palmitoyl])SKYLDERAAK([AEEA-C5N3])DFVQWLLDT-NH2 [PEP16]
hGCGR_EC50 (cAMP activity assay) [1]: 0.05 nM
hGLP1R EC50 (cAMP activity assay) [2]: 0.06 nM

B3: PEP21 (peptide)
peptide: HXQGTFTSDKSKYLDXRAAQDFVQWLLDTKK
modifications: Aib (U) at 2 and 16; Lys 10 K(γEγEC16); Lys 31 K(PEG2PEG2-C5N3); C-terminal amide
hGCGR_EC50 (cAMP activity assay) [1]: 0.08 nM
hGLP1R EC50 (cAMP activity assay) [2]: 0.07 nM

B4: PEP28 (peptide)
peptide: H[Aib]QGTFTSDYSKYLD[Aib]RAAQDFVQWLLDTKK([AEEA-AEEA-γGlu-C16N3])-NH2
modifications: N-terminus assumed
SMILES: CC(C)C[C@H](NC(=O)[C@H](Cc1c[nH]c2ccccc12)NC(=O)[C@H](CCC(N)=O)NC(=O)[C@@H](NC(=O)[C@H](Cc1ccccc1)NC(=O)[C@H](CC(=O)O)NC(=O)[C@H](CCC(N)=O)NC(=O)[C@H](C)NC(=O)[C@H](C)NC(=O)[C@H](CCCNC(=N)N)NC(=O)C(C)(C)NC(=O)[C@H](CC(=O)O)NC(=O)[C@H](CC(C)C)NC(=O)[C@H](Cc1ccc(O)cc1)NC(=O)[C@H](CCCCN)NC(=O)[C@H](CO)NC(=O)[C@H](Cc1ccc(O)cc1)NC(=O)[C@H](CC(=O)O)NC(=O)[C@H](CO)NC(=O)[C@@H](NC(=O)[C@H](Cc1ccccc1)NC(=O)[C@@H](NC(=O)CNC(=O)[C@H](CCC(N)=O)NC(=O)C(C)(C)NC(=O)[C@@H](N)Cc1c[nH]cn1)[C@@H](C)O)[C@@H](C)O)C(C)C)C(=O)N[C@@H](CC(C)C)C(=O)N[C@@H](CC(=O)O)C(=O)N[C@H](C(=O)N[C@@H](CCCCN)C(=O)N[C@@H](CCCCNC(=O)COCCOCCNC(=O)COCCOCCNC(=O)CC[C@H](NC(=O)CCCCCCCCCCCCCCCN=[N+]=[N-])C(=O)O)C(N)=O)[C@@H](C)O
hGCGR_EC50 (cAMP activity assay) [1]: 0.17 nM
hGLP1R EC50 (cAMP activity assay) [2]: 0.16 nM

H[dS]QGTFTSDK([γGlu-γGlu-Palmitoyl])SKYLDERAAK([AEEA-AEEA-C5N3])DFVQWLLDT-NH2 [PEP17]
hGCGR_EC50 (cAMP activity assay) [1]: 0.06 nM
hGLP1R EC50 (cAMP activity assay) [2]: 0.05 nM

HXQGTFTSDKSKYLDERAAQDFVXWLLDT (D-Ser (s) at 2; Lys 10 K(PEG2PEG2γEC18-OH); Nle(εN3) at 24; C-terminal amide) [PEP29]
hGCGR_EC50 (cAMP activity assay) [1]: 3.26 nM
hGLP1R EC50 (cAMP activity assay) [2]: 3.28 nM

H[Aib]QGTFTSDK([γGlu-γGlu-Palmitoyl])SKYLD[Aib]RAAQDFV[Lys(N3)]WL[Met(O2)]KGRG-NH2 [PEP3]
hGCGR_EC50 (cAMP activity assay) [1]: 0.07 nM

HXQGTFTSDKSKYLDERAAQDFVXWLLDT (D-Ser (s) at 2; Lys 10 K(γEγEC16); Nle(εN3) at 24; C-terminal amide) [PEP74]
hGLP1R EC50 (cAMP activity assay) [2]: 0.05 nM

HXQGTFTSDKSKYLDERAAQDFVXWLLXT (D-Ser (s) at 2; Lys 10 K(γEγEC16); Nle(εN3) at 24; γE at 28; C-terminal amide) [PEP11]
hGLP1R EC50 (cAMP activity assay) [2]: 0.06 nM

B5: PEP22 (peptide)
peptide: H[Aib]QGTFTSDK([γGlu-γGlu-Palmitoyl])SKYLD[Aib]RAAQDFV[Lys(N3)]WLLDTK[γGlu]-NH2
modifications: N-terminus assumed
SMILES: CCCCCCCCCCCCCCCC(=O)N[C@@H](CCC(=O)N[C@@H](CCC(=O)NCCCC[C@H](NC(=O)[C@H](CC(=O)O)NC(=O)[C@H](CO)NC(=O)[C@@H](NC(=O)[C@H](Cc1ccccc1)NC(=O)[C@@H](NC(=O)CNC(=O)[C@H](CCC(N)=O)NC(=O)C(C)(C)NC(=O)[C@@H](N)Cc1c[nH]cn1)[C@@H](C)O)[C@@H](C)O)C(=O)N[C@@H](CO)C(=O)N[C@@H](CCCCN)C(=O)N[C@@H](Cc1ccc(O)cc1)C(=O)N[C@@H](CC(C)C)C(=O)N[C@@H](CC(=O)O)C(=O)NC(C)(C)C(=O)N[C@@H](CCCNC(=N)N)C(=O)N[C@@H](C)C(=O)N[C@@H](C)C(=O)N[C@@H](CCC(N)=O)C(=O)N[C@@H](CC(=O)O)C(=O)N[C@@H](Cc1ccccc1)C(=O)N[C@H](C(=O)N[C@@H](CCCCN=[N+]=[N-])C(=O)N[C@@H](Cc1c[nH]c2ccccc12)C(=O)N[C@@H](CC(C)C)C(=O)N[C@@H](CC(C)C)C(=O)N[C@@H](CC(=O)O)C(=O)N[C@H](C(=O)N[C@@H](CCCCN)C(=O)N[C@@H](CCC(N)=O)C(=O)O)[C@@H](C)O)C(C)C)C(=O)O)C(=O)O
hGLP1R EC50 (cAMP activity assay) [2]: 0.07 nM

B6: PEP6 (peptide)
peptide: H[Aib]QGTFTSDK([γGlu-γGlu-Palmitoyl])SKYLD[Aib]RRAQDFVQWLLDT[Lys(N3)][γGlu]-NH2
modifications: N-terminus assumed
SMILES: CCCCCCCCCCCCCCCC(=O)N[C@@H](CCC(=O)N[C@@H](CCC(=O)NCCCC[C@H](NC(=O)[C@H](CC(=O)O)NC(=O)[C@H](CO)NC(=O)[C@@H](NC(=O)[C@H](Cc1ccccc1)NC(=O)[C@@H](NC(=O)CNC(=O)[C@H](CCC(N)=O)NC(=O)C(C)(C)NC(=O)[C@@H](N)Cc1c[nH]cn1)[C@@H](C)O)[C@@H](C)O)C(=O)N[C@@H](CO)C(=O)N[C@@H](CCCCN)C(=O)N[C@@H](Cc1ccc(O)cc1)C(=O)N[C@@H](CC(C)C)C(=O)N[C@@H](CC(=O)O)C(=O)NC(C)(C)C(=O)N[C@@H](CCCNC(=N)N)C(=O)N[C@@H](CCCNC(=N)N)C(=O)N[C@@H](C)C(=O)N[C@@H](CCC(N)=O)C(=O)N[C@@H](CC(=O)O)C(=O)N[C@@H](Cc1ccccc1)C(=O)N[C@H](C(=O)N[C@@H](CCC(N)=O)C(=O)N[C@@H](Cc1c[nH]c2ccccc12)C(=O)N[C@@H](CC(C)C)C(=O)N[C@@H](CC(C)C)C(=O)N[C@@H](CC(=O)O)C(=O)N[C@H](C(=O)N[C@@H](CCCCN=[N+]=[N-])C(=O)N[C@@H](CCC(N)=O)C(=O)O)[C@@H](C)O)C(C)C)C(=O)O)C(=O)O
hGCGR_EC50 (cAMP activity assay) [1]: 0.07 nM
hGLP1R EC50 (cAMP activity assay) [2]: 0.17 nM

HXQGTFTSDKSKYLDERAAQDFVKWLLDT (D-Ser (s) at 2; Lys 10 K(γEγEC16); Lys 24 K(PEG2-C5N3); C-terminal amide) [PEP14]
hGCGR_EC50 (cAMP activity assay) [1]: 0.05 nM
hGLP1R EC50 (cAMP activity assay) [2]: 0.07 nM
